Experiments:
[1] = target: human TLR4 (ECD-His Tag, residues 1 to 631) (human, UniProt O00206 24-631); test: SPR
[2] = target: extracellular domain of human RAGE (residues 1 to 344) (human, UniProt Q15109 23-344); test: SPR
Chain of extracellular domain of human RAGE (residues 1 to 344) (Q15109 23-344): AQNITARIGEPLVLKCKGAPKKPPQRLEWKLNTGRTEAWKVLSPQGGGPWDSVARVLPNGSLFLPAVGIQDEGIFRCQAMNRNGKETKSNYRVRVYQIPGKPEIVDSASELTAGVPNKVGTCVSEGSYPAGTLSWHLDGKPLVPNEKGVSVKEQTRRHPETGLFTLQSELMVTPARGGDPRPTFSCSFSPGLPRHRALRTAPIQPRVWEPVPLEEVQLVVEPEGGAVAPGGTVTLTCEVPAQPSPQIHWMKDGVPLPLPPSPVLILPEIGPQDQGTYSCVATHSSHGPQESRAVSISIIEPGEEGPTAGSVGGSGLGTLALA

Chain of human TLR4 (ECD-His Tag, residues 1 to 631) (O00206 24-631): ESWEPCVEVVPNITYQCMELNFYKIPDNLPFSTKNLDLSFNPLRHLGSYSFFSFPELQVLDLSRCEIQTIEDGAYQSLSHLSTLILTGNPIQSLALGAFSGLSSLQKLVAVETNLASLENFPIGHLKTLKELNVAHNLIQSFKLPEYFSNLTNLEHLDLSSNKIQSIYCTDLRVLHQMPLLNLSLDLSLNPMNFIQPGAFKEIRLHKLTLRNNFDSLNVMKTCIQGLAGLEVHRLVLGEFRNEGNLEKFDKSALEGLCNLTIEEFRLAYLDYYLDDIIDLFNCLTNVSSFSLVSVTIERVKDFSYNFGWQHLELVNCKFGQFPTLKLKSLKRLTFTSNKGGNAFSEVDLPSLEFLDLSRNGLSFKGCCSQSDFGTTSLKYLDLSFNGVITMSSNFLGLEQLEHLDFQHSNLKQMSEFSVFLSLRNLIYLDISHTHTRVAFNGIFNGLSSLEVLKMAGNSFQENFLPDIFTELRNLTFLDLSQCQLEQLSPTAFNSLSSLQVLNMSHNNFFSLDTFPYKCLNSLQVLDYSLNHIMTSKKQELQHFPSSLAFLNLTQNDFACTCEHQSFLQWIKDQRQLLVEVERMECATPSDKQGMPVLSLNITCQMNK

B1: recombinant human procathepsin L (pCTS-L) (natural protein)
chain: TLTFDHSLEAQWTKWKAMHNRLYGMNEEGWRRAVWEKNMKMIELHNQEYREGKHSFTMAMNAFGDMTSEEFRQVMNGFQNRKPRKGKVFQEPLFYEAPRSVDWREKGYVTPVKNQGQCGSCWAFSATGALEGQMFRKTGRLISLSEQNLVDCSGPQGNEGCNGGLMDYAFQYVQDNGGLDSEESYPYEATEESCKYNPKYSVANDTGFVDIPKQEKALMKAVATVGPISVAIDAGHESFLFYKEGIYFEPDCSSEDMDHGVLVVGYGFESTESDNNKYWLVKNSWGEEWGMGGYVKMAKDRRNHCGIASAASYPTV
Question: Which Kd [1] does the source give for B1 here?
Answer: The Kd was 18 nM.

Question: What about the Kd [2] of the same binder?
Answer: Its Kd is 2.7 nM.

Source: article PMC9897667 (2023)
